For this experiment, the target named is T1, antibody G1 Fab fragment.
T1 construct: also called TEV-48125; fremanezumab
Description: SPR (Biacore) competition: 50 nM G1 Fab pre-incubated 1 h with 10 µM competing peptide, then flowed over N-biotinylated human α-CGRP on SA chip. An excerpt:
Y axis represents percentage of binding blocked by the presence of the competing peptide compared with the binding in the absence of the competing peptide.
All these peptides are amidated at the C-terminus.
For orientation: In SPR one partner is held on a chip, and binding of the other changes the refractive index at the surface.

Where no end group is shown, it is not given here.

T1 sequence (VH, as listed by the source, chain 1 of 2): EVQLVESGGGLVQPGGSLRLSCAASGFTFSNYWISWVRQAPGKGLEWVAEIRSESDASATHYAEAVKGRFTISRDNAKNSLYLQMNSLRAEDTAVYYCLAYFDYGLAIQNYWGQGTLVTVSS
T1 sequence (VL, as listed by the source, chain 2 of 2): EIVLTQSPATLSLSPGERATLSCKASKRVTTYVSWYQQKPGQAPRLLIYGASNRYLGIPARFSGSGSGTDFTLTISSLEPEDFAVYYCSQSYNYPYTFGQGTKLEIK

B1: 19-36 CONH2 (peptide)
peptide: SGGVVKNNFVPTNVGSKA-NH2
notes: also called peptide fragment 19-36 (amidated at the C-terminus) of human α-CGRP
On to B1, for which the binding result is “no binding (tested: 10 µM)”.
